This is an account of results in PMC3636079, “Determinants at the N- and C-termini of Gα12 required for activation of Rho-mediated signaling” (Journal of Molecular Signaling, 2013).

In assay [1] the target is T1, GST fusion of amino acids 1-252 of p115RhoGEF (GST-p115-RH) (UniProt Q92888 1-252).
T1 construct: p115RhoGEF, N-terminal 252 amino acids holding the RH domain; subcloned by PCR from a plasmid with an N-terminal myc tag on p115RhoGEF 1-252; also called RGS
T1 sequence (looked up): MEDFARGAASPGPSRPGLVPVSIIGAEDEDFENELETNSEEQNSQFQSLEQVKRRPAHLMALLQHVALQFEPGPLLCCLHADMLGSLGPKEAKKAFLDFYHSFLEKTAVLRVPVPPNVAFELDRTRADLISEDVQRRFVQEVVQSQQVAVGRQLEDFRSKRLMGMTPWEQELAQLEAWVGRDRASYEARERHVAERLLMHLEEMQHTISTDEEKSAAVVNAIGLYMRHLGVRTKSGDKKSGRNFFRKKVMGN
Put plainly: pull-down; GST fusion (or GST alone) immobilised on glutathione-sepharose; HEK293 detergent-soluble extract diluted to 0.05% polyoxyethylene-10-lauryl ether in 50 mM HEPES pH 7.5, 1 mM EDTA, 3 mM dithiothreitol, 10 mM MgSO4; about 2 h at 4°C; three washes; immunoblot with anti-Gα12 or anti-myc; band intensities given as pulldown:load ratio. The settings on record: one partner purified.

The target of assay [2] is T2, GST fusion of amino acids 320-606 of LARG (GST-LARG-RH) (UniProt Q9NZN5 320-606).
T2 construct: leukemia-associated RhoGEF (LARG), RGS-homology (RH) domain, amino acids 320-606; plasmid provided by Tohru Kozasa
T2 sequence (looked up): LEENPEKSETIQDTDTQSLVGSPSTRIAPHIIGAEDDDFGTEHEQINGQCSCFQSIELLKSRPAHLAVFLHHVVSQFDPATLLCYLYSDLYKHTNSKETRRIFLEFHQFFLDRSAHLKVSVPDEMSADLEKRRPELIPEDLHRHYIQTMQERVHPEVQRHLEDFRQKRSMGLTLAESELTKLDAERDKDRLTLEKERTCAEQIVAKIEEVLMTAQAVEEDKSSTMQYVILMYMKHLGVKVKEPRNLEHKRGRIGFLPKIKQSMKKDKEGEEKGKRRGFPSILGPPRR
Described as above. As to conditions: one partner purified.

B1: myc-Gα12^QL Glu^31/33Arg (natural protein, UniProt P27600 1-379, looked up)
chain: MSGVVRTLSRCLLPAEAGARERRAGAARDARRRARRRSRDIDALLARERRAVRRLVKILLLGAGESGKSTFLKQMRIIHGREFDQKALLEFRDTIFDNILKGSRVLVDARDKLGIPWQHSENEKHGMFLMAFENKAGLPVEPATFQLYVPALSALWRDSGIREAFSRRSEFQLGESVKYFLDNLDRIGQLNYFPSKQDILLARKATKGIVEHDFVIKKIPFKMVDVGGLRSQRQKWFQCFDGITSILFMVSSSEYDQVLMEDRRTNRLVESMNIFETIVNNKLFFNVSIILFLNKMDLLVEKVKSVSIKKHFPDFKGDPHRLEDVQRYLVQCFDRKRRNRSKPLFHHFTTAIDTENIRFVFHAVKDTILQENLKDIMLQ
notes: Gα12 with Q229L and Glu31 and Glu33 changed to Arg; also called double charge substitution mutant; source: HEK293, transfected, in detergent-soluble extract
For the molecule B1, the “pulldown:load ratio, percent of myc-Gα12^QL” value was roughly 86% in assay [1] and roughly 18% in assay [2].
